Measurements: PMC6941359, “An improved bind-n-seq strategy to determine protein-DNA interactions validated using the bacterial transcriptional regulator YipR”

What was measured:
YipR (His6-MBP fusion) = YipR (His6-MBP fusion) (Xanthomonas campestris pv. campestris …, UniProt A0A0H2XAU1 1-344); assay: EMSA; EMSA buffer not given in the material; Bind-n-seq: 20 mM Tris-HCl pH 8, 1 mM TCEP, 2% glycerol, 1 mM EDTA (binding buffer A) plus MgCl2, BSA and 0-500 mM KCl, room temperature 2 h; details: protein: recombinant; tags: His6-MBP; label: DIG; blunt
Chain of YipR (His6-MBP fusion) (A0A0H2XAU1 whole entry, the tested form may be a part): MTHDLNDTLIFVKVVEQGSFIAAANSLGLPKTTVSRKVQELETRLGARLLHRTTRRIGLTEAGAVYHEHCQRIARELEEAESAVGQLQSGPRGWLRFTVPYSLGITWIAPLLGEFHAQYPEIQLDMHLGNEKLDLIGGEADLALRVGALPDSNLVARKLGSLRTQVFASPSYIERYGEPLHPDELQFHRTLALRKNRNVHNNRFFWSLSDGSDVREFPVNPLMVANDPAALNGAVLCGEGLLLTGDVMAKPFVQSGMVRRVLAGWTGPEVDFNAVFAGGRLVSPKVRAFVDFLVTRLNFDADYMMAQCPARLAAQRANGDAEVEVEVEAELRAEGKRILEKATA

His6-MBP tag alone = His6-MBP tag alone (UniProt P0AEX9 27-392); assay: EMSA; tag-only control; EMSA buffer not given in the material; Bind-n-seq: 20 mM Tris-HCl pH 8, 1 mM TCEP, 2% glycerol, 1 mM EDTA (binding buffer A) plus MgCl2, BSA and 0-500 mM KCl, room temperature 2 h; details: protein: recombinant; tags: His6-MBP; label: DIG; blunt

B1: XC_2633P (dsDNA)
DNA 1: CCGGCTTTATCCAGATCGCCGACCTGCACCCAGGACCCAGCGGCTTGCTGACGCCCTTCAAGGACACACGGATGTGGATAGCGGGGTTCAAGCCCGACGGGAACCGCGACAAGTAACCCGGCCTCCTACTTCCCAATCCCTCTC
DNA 2: GAGAGGGATTGGGAAGTAGGAGGCCGGGTTACTTGTCGCGGTTCCCGTCGGGCTTGAACCCCGCTATCCACATCCGTGTGTCCTTGAAGGGCGTCAGCAAGCCGCTGGGTCCTGGGTGCAGGTCGGCGATCTGGATAAAGCCGG
- binding result (YipR (His6-MBP fusion)): binds
- binding result (His6-MBP tag alone): no binding
